Tests used:
[1] = tested on: rheumatoid synovial cells; conditions: cited from earlier work
HFMCD-fed mice = test: Hepatocyte-specific sgp130 expression in HFMCD-fed mice; type: in vivo, mouse
Procedure: (§1) Three weeks prior to starting either the WDF and HFMCD diet, mice were injected with an AAV8 virus encoding either albumin promoter-driven sgp130 (AAV8-Alb-sgp130), which contains the whole extracellular domain of mouse gp130 protein (amino acid 1 to 617), or albumin promoter alone (AAV8-Alb-Null) (FIGS. 35A, 41A, and 42A). AAV8-Alb-sgp130 administration induced high levels of sgp130 in the liver, which was also detectable in the peripheral circulation, suitable for both local and systemic inhibition of putative IL6 or IL11 trans-signaling (FIGS. 35B, 41B, 42B-42C).
6-8 weeks old C57BL/6N, Il11ra1−/− mice, and Il11ra1loxP/loxP and their respective control were fed with methionine- and choline-deficient diet supplemented with 60 kcal % fat (HFMCD, A06071301B16, Research Diets) for 4 weeks. Control mice received normal chow (NC, Specialty Feeds).
(§2) 6-8-week old male C57BL/6N mice (InVivos) were injected with 4×10^11 gc AAV8-Alb-sgp130 virus to induce hepatocyte specific expression of soluble gp130; control mice were injected with 4×10^11 gc AAV8-Alb-Null virus. 3 weeks following virus administration, mice were fed with HFMCD, WDF, or NC for durations that are described.

[2] = tested on: primary human hepatocytes; test: Stimulation of primary human hepatocytes with IL11, hyperIL11, hyperIL6; type: cell-based
Procedure: Human hepatocytes (5200, ScienCell) were grown and maintained in hepatocyte media (5201, ScienCell) supplemented with 2% fetal bovine serum (FBS) and 1% Penicillin-streptomycin.
Primary human hepatocytes (5200, ScienCell) were maintained in hepatocyte medium ([…], ScienCell) supplemented with 2% fetal bovine serum, 1% Penicillin-streptomycin at 37° C. and 5% CO2. Hepatocytes (P2-P3) were serum-starved overnight unless otherwise specified in the methods prior to 24 hours stimulation with different doses of various recombinant proteins as described.
For surface IL11RA, IL6R, and gp130 analysis, primary human hepatocytes and THP-1 cells were stained with IL11RA, IL6R, or gp130 antibody and the corresponding Alexa Fluor 488 secondary antibody. Cell death analysis was performed by staining primary human hepatocytes with Dead Cell Apoptosis Kit with Annexin V FITC and PI (V13242, Thermo Fisher). PI+ve cells were then quantified with the flow cytometer (Fortessa, BD Biosciences) and analyzed with FlowJo version X software (TreeStar).
Alanine Aminotransferase (ALT) activity in the cell culture supernatant and mouse serum was measured using ALT Activity Assay Kit (ab105134, Abcam). Liver Glutathione (GSH) levels were measured using Glutathione Colorimetric Detection Kit (EIAGSHC, Thermo Fisher). Total hydroxyproline content in mouse livers was measured using Quickzyme Total Collagen assay kit (QZBtotco15, Quickzyme Biosciences). The levels of serum and liver triglycerides were measured using Triglyceride Assay Kit (ab65336, Abcam). Mouse serum levels of Aspartate Aminotransferase (AST) and cholesterol were measured using AST Assay Kit (ab105135, Abcam) and Cholesterol Assay Kit (ab65390; Abcam), respectively. All colorimetric assays were performed according to the manufacturer's protocol.
(§3) Western blots were carried out on total protein extracts from hepatocytes and liver tissues. Hepatocyte and liver tissue lysates were homogenized in RIPA Lysis and Extraction Buffer (89901, Thermo Scientific) containing protease and phosphatase inhibitors (Roche). Protein lysates were separated by SDS-PAGE and transferred to PVDF membranes. Protein bands were visualized using the ECL detection system (Pierce) with the appropriate secondary antibodies: anti-rabbit HRP or anti-mouse HRP.

[3] = tested on: primary human hepatocytes; test: Palmitate loading (lipotoxicity) of primary human hepatocytes; type: cell-based
Procedure: Palmitate:BSA conjugated solution in the ratio of 6:1 was prepared as described earlier (Alsabeeh et al., 2018). Palmitate (0.5 mM) conjugated in fatty acids free BSA was used to treated cells as described in figure legends; 0.5% BSA solution was used as control. […]
Primary human hepatocytes were seeded on 8-well chamber slides (1×10^4 cells/well). For this experiment, cells were not serum-starved prior to palmitate treatment. 24 hours following palmitate stimulation, cells were washed, incubated with 25 μM of DCFDA solution (ab113851, Abcam) for 45 minutes at 37° C. in the dark, and rinsed with dilution buffer according to the manufacturer's protocol. Live cells with positive DCF staining were imaged with filter set appropriate for fluorescein (FITC) using a fluorescence microscope (Leica). […]
as §3

WDF-fed mice = test: Hepatocyte-specific sgp130 expression in WDF-fed mice; type: in vivo, mouse
Procedure: as §1
6-8 weeks old C57BL/6N, Il11ra1−/− mice, and Il11ra1loxP/loxP and their respective control were fed western diet (D12079B, Research Diets) supplemented with 15% weight/volume fructose in drinking water (WDF) for 16 weeks. Control mice received NC and tap water.
as §2

[4] = tested on: IL-11 mediated signalling; conditions: cited from earlier work

COc1ccc2c(c1)c(CC(=O)O)c(C)n2C(=O)c1ccc(Cl)cc1 [indomethacin, reference compound]
expression of IL-11 [1]: reduction in the expression of IL-11

B1: sgp130: Soluble gp130, inhibitor of trans-signaling; human sgp130 Fc in vitro, mouse sgp130 expressed from AAV8-Alb-sgp130 in vivo (protein)
chain: ELLDPCGYISPESPVVQLHSNFTAVCVLKEKCMDYFHVNANYIVWKTNHFTIPKEQYTIINRTASSVTFTDIASLNIQLTCNILTFGQLEQNVYGITIISGLPPEKPKNLSCIVNEGKKMRCEWDGGRETHLETNFTLKSEWATHKFADCKAKRDTPTSCTVDYSTVYFVNIEVWVEAENALGKVTSDHINFDPVYKVKPNPPHNLSVINSEELSSILKLTWTNPSIKSVIILKYNIQYRTKDASTWSQIPPEDTASTRSSFTVQDLKPFTEYVFRIRCMKEDGKGYWSDWSEEASGITYEDRPSKAPSFWYKIDPSHTQGYRTVQLVWKTLPPFEANGKILDYEVTLTRWKSHLQNYTVNATKLTVNLTNDRYLATLTVRNLVGKSDAAVLTIPACDFQATHPVMDLKAFPKDNMLWVEWTTPRESVKKYILEWCVLSDKAPCITDWQQEDGTVHRTYLRGNLAESKCYLITVTPVYADGPGSPESIKAYLKQAPPSKGPTVRTKKVGKNEAVLEWDQLPVDVQNGFIRNYTIFYRTIIGNETAVNVDSSHTEYTLSSLTSDTLYMVRMAAYTDEGGKDGPEFTFTTPKFAQGEIE
modifications: left off: a dimerising Fc or GST
notes: human sgp130 Fc in vitro, mouse sgp130 expressed from AAV8-Alb-sgp130 in vivo
diet-induced signaling events (HFMCD-fed mice; HFMCD): no effect | HFMCD-induced liver fibrosis (HFMCD-fed mice; HFMCD 4 weeks): unchanged | expression of inflammation and fibrosis genes (HFMCD-fed mice; HFMCD 4 weeks): unaffected | hepatocyte damage markers (ALT and AST) and GSH (HFMCD-fed mice; HFMCD 4 weeks): irrespective of sgp130 expression | steatosis (HFMCD-fed mice; HFMCD 4 weeks): unaltered | IL11-induced hepatocyte death and signaling ([2]; IL11 20 ng/ml, sgp130 or sIL11RA 1 μg/ml): unaffected | ALT release from IL11-stimulated hepatocytes ([2]; increasing doses of sgp130 or sIL11RA): no effect | activation of signaling downstream of hyperIL6 (p-STAT3) ([2]; sgp130 added): blocked | activation of signaling downstream of hyperIL11 (p-ERK/p-JNK) ([2]; sgp130 added): blocked | hepatotoxic effects of hyperIL11 ([2]; sgp130 added): inhibited | IL11 dose-dependent hepatocyte cell death on addition of decoy ([2]; sgp130 or sIL11RA 1 μg/ml): unaffected | palmitate-induced signaling events ([3]; Western blot): no effect | secretion of cytokines (IL11, IL6, CCL2, CCL5) ([3]; X209 2 μg/ml or sgp130 1 μg/ml): no effect | ALT, AST, collagen, fasting blood glucose, serum triglycerides, serum cholesterol, GSH (WDF-fed mice; 16 weeks of WDF): none of these parameters were affected | expression of pro-inflammatory and fibrosis genes (WDF-fed mice; 16 weeks of WDF): unaffected | obesity, liver mass and steatosis phenotypes (WDF-fed mice; 16 weeks of WDF): unaffected | diet-induced signaling events (WDF-fed mice; WDF): no effect

B2: W147A: IL-11 antagonist mutein, amino acid 147 mutated from tryptophan to alanine (protein, UniProt P20809 22-199, looked up, variant W147A)
Interleukin-11: PGPPPGPPRVSPDPRAELDSTVLLTRSLLADTRQLAAQLRDKFPADGDHNLDSLPTLAMSAGALGALQLPGVLTRLRADLLSYLRHVQWLRRAGGSSLKTLEPELGTLQARLDRLLRRLQLLMSRLALPQPPPDPPAPPLAPPSSAAGGIRAAHAILGGLHLTLDWAVRGLLLLKTRL
antagonism of IL-11 mediated signalling [4]: efficient blockade of IL-11 signalling

B3: sIL-11R: soluble murine IL-11 receptor alpha chain (Curtis et al.) (protein, UniProt Q64385 24-372, looked up)
extracellular domain: SPCPQAWGPPGVQYGQPGRPVMLCCPGVSAGTPVSWFRDGDSRLLQGPDSGLGHRLVLAQVDSPDEGTYVCQTLDGVSGGMVTLKLGFPPARPEVSCQAVDYENFSCTWSPGQVSGLPTRYLTSYRKKTLPGAESQRESPSTGPWPCPQDPLEASRCVVHGAEFWSEYRINVTEVNPLGASTCLLDVRLQSILRPDPPQGLRVESVPGYPRRLHASWTYPASWRRQPHFLLKFRLQYRPAQHPAWSTVEPIGLEEVITDAVAGLPHAVRVSARDFLDAGTWSAWSPEAWGTPSTGPLQDEIPDWSQGHGQQLEAVVAQEDSPAPARPSLQPDPRPLDHRDPLEQVAVLA
modifications: extracellular domain
antagonism of IL-11 mediated signalling [4]: capable of antagonizing the activity of IL-11

B4: interferon-gamma: interferon-gamma (IFNγ) (protein, UniProt P01579 24-161, looked up)
Interferon gamma: QDPYVKEAENLKKYFNAGHSDVADNGTLFLGILKNWKEESDRKIMQSQIVSFYFKLFKNFKDDQSIQKSVETIKEDMNVKFFNSNKKKRDDFEKLTNYSVTDLNVQRKAIHELIQVMAELSPAAKTGKRKRSQMLFRG
expression of IL-11 [1]: reduction in the expression of IL-11

Source: US11813311B2, “Treatment and prevention of metabolic diseases” (Singapore Health Services PTE LTD., priority 2019, dated 2023)
